Laboratory results taken from patent publication US8252764B2, “Compositions and methods of use of targeting peptides against placenta and adipose tissues” (priority 2000, dated 2012).
Where two headings read alike, the source gives them in different places.

What was measured:
[1] = system: placenta
Description: The CARAC peptide (SEQ ID NO:12), an adipose targeting peptide (FE, TREVHRS, SEQ ID NO:13) or fd-tet phage were used as non-placental targeting controls.

[2] = system: mouse villous yolk sac (vys); assay: Peptide localization in placenta (immunohistochemistry, FITC immunofluorescence); format: in vivo; conditions: 18 dpc pregnant mice, intravenous, 6 h
Procedure: Fusion and Recombinant Peptides Carboxyfluorescein (FITC)-conjugated [sequence] […] The FITC-peptide stocks were made by dissolving lyophilized peptides in DMSO to a concentration of 20 mM, after which the peptides were diluted to 1 mM with PBS (phosphate buffered saline) and aliquots were frozen until use. The [sequence] (SEQ ID NO:144) peptide and an unrelated control peptide, [sequence] (SEQ ID NO:87), fused in-frame with GST at the amino-terminus were purified to approximately 90% purity using the BugBuster GST Bind Kit (Novagen, Madison, Wis.). Purified peptides were buffer-exchanged into PBS using Centricon PL-10 columns (Millipore, Bedford, Mass.) and the aliquots were frozen until use. […]
Peptide Localization in Tissues Immunohistochemistry on sections of formalin-fixed, paraffin-embedded mouse tissue was performed as described (Pasqualini et al., 2000; Pasqualini and Ruoslahti, 1996): For phage-peptide immunolocalization, a rabbit anti-fd phage antibody (Sigma Chemicals, St. Louis, Mo.) was used at 1:1,000 dilution and detected with a secondary horseradish peroxidase (HRP)-conjugated antibody. For GST-peptide immunolocalization, a goat anti-GST antibody (Amersham, Piscataway, N.J.) was used at 1:1,000 dilution and detected with a secondary alkaline phosphatase (AP)-conjugated antibody. […]

[3] = system: white adipose vasculature; assay: Peptide localization in white fat; format: in vivo, mouse; conditions: intravenous
Description: (A) and (B) Anti-phage immunohistochemistry in paraffin sections of subcutaneous white fat from leptin-deficient mice intravenously injected 6 hr prior to tissue processing. (C) and (D) Peptide-FITC immunofluorescence in paraffin sections of subcutaneous white fat from leptin-deficient mice intravenously injected 6 hr prior to tissue processing. […] (SEQ ID NO:22) linked to FITC peptide, or (D) control. CARAC (SEQ ID NO:12) linked to FITC peptide. […] Bar: 10 μm.
(A), (C) and (E) Peptide-FITC immunofluorescence or (B), (D) and (F) lectin-rhodamine immunofluorescence in blood vessels of (A), (B), (E) and (F) subcutaneous white fat or (C) and (D) pancreas controls detected in paraffin-sectioned tissues from c57bl/6 mice intravenously co-injected 5 min prior to tissue processing. […] (SEQ ID NO:22) linked to FITC peptide and lectin-rhodamine; or (E) and (F) control CARAC (SEQ ID NO:12) linked to FITC peptide and lectin-rhodamine; (B), (D) and (F) Arrows show endothelium marked with lectin. […] Bar: 10 μm.
Staining of formalin-fixed, paraffin-embedded mouse tissue sections was performed (Pasqualini & Rouslahti, 1996; Pasqualini et al., 2000). For phage-peptide immunolocalization, 10^10 TU of [sequence] […] Apoptosis was detected using standard TUNEL immunohistochemistry and an HRP-conjugated antibody. […]

[4] = system: MDA-MB-435-derived tumor xenografts; assay: In vivo tumor homing of APA-binding phage; set-up: species or system mouse
Procedure: FIG. 31. APA-binding phage specifically bind tumors. Equal amounts of phage were injected into the tail veins of mice bearing MDA-MB-435-derived tumors and phage were recovered after perfusion. Mean values for phage recovered from the tumor or control tissue (brain) and the standard error from triplicate platings are shown.
MDA-MB-435-derived tumor xenografts were established in female nude mice 2 months old (Jackson Labs, Bar Harbor, Me.). Mice were anesthetized with Avertin and injected intravenously through the tail vein with 10^9 TU of the phage in a 200 μl volume of DMEM. The phage were allowed to circulate for 5 min, and the animals were perfused through the heart with 5 ml of DMEM. The tumor and brain were dissected from each mouse, weighed, and equal amounts of tissue were homogenized. The tissue homogenates were washed three times with ice-cold DMEM containing a proteinase inhibitor cocktail and 0.1% BSA. Bound phage were rescued and counted as described for cell panning. Fd-tet phage was injected at the same input as a control. The experiment was repeated twice. In parallel, part of the same tissue samples were fixed in Bouin solution, and imbedded in paraffin for preparation of tissue sections. An antibody to M-13 phage (Amersham-Pharmacia) was used for the staining.

[5] = system: placental transporter; assay: Phage recovery from embryos (materno-fetal transfer); format: in vivo, mouse; conditions: excess of co-injected peptide
Procedure: FIG. 4. The TPKTSVT (SEQ ID NO:5) peptide specifically binds a placental transporter. (A) Recovery of indicated phage from embryos carried by 18 dpc pregnant mice intravenously injected (tail vein) with 10^10 TU of the indicated phage 6 h prior to phage recovery or immunohistochemistry. […] TPKTSVT (SEQ ID NO:5) phage were administered alone (dark cross-hatched) or co-administered with control-GST (black) or TPKTSVT (SEQ ID NO:5) linked to GST (white bar). Shown are mean+/−SEM (standard error) from different embryos. (B-D) Anti-phage IMP immunohistochemistry (arrowheads) in paraffin sections of the vys from the corresponding mice, as indicated. Asterisks mark embryonic capillaries. Bar: 20 μm.
Phage Recovery Mouse placentas and embryonic livers were individually weighed, ground with a glass Dounce homogenizer and suspended in 1 ml of Dulbecco's Modified Eagle's Medium (DMEM) containing proteinase inhibitors (DMEM-prin—1 mM PMSF, 20 μg/ml aprotinin, and 1 μg/ml leupeptin). The suspension was vortexed and washed three times with DMEM-prin. […]
The TPKTSVT (SEQ ID NO:5) Peptide Binds to a Placental Transporter The TPKTSVT (SEQ ID NO:5) peptide localizes to the vys (FIG. 3), which is the tissue primarily responsible for materno-fetal transport in mice. […] Either TPKTSVT (SEQ ID NO:5)-phage or control phage were injected into pregnant mice and the recovery of phage from embryos was determined.

[6] = system: placenta; assay: Peptide embryotoxicity in pregnant mice; format: in vivo, mouse
Description: FIG. 7. TPKTSVT (SEQ ID NO:5) peptide inhibits mouse pregnancy and is teratogenic. (A) Pregnancy courses (representative from 5 independent experiments) in mice subcutaneously injected with the indicated phage or peptides were monitored by daily weighing of the mice upon each injection (arrows). (B) Appearance of a normally developed 20 dpc embryo (left) for control GST fusion treatment compared to a representative 20 dpc embryo (right) resulting from TPKTSVT (SEQ ID NO:5) linked to GST fusion treatment. A severely teratogenic phenotype is observed with the placental targeting fusion peptide. (C) and […]) Hematoxylin/eosin staining of 20 dpc paraffin-embedded placentas derived from mice injected for 7 days with (C) control GST fusion or (D) the TPKTSVT (SEQ ID NO:5) linked to GST fusion peptide. Note hemorrhage (black asterisks), necrosis (white asterisks), and fibrosis (arrowheads). Bar: 500 μm (50 μm for insets).
Peptide Embryotoxicity For peptide embryotoxicity studies, agents were injected at the following daily doses: GST-peptides 0.1 mg (˜3 nMoles), FITC-peptides 50 μg (˜30 nMoles),and phage-peptides 10″ TU. All agents were dissolved in PBS. Mice were injected subcutaneously in the back (5-10 injections per course).
The phage or fusion peptides were subcutaneously injected and the progression of pregnancy was compared with mice injected with control phage, control peptides, or saline. Multiple injections of the TPKTSVT (SEQ ID NO:5) peptide were administered, starting at mid-pregnancy (˜12 days postconception, dpc) in doses non-toxic to the mother.

[7] = system: HUVEC cells; assay: Apoptosis assay in HUVEC (propidium iodide, chromatin fragmentation); format: cell-based, human; conditions: 10^6 HUVEC, 15 μM, 2-4 hours
Procedure: FIG. 26. Penetratin peptide chimera binding to the β5 cytoplasmic domain induces programmed cell death. 10^6 HUVEC cells were harvested in complete media and 15 μM penetratin peptide chimeras were added to the cells. […] (a) Profile obtained with starved cells after 24 h. (b) Confluent cells in complete media. (c) 15 μM of penetratin after four hours. (d) 15 μM of VISY-penetratin chimera after four hours.
FIG. 30. Chimeric peptide containing VISY peptide linked to penetratin (antennapedia) induces apoptosis. VISY induced apoptosis was inhibited by addition of a caspase inhibitor (zVAD).
Approximately 1×10^6 cells were harvested in complete media and 15 AM of peptide added for 4, 8, or 12 h. The cellswere then washed in PBS and resuspended in 0.5 ml propidium iodide solution (50 μg/ml PI, 0.1% Triton X-100, 0.1% sodium citrate). After a 24-h incubation at 4° C., cells were counted with a XL Coulter (Coulter Corporation) with a 488-nm laser; 12,000 cells were counted for each histogram, and cell cycle distributions were analyzed with Multicycle program.
Approximately 1×10^6 cells were harvested in complete medium, and 15 μM of peptide was added for 4, 8, or 12 hours. The cells were then washed in PBS and resuspended in 0.5 ml propidium iodide solution (50 μg/ml PI, 0.1% Triton X-100, 0.1% sodium citrate). After a 24-h incubation at 4° C., the cells were counted with an XL Coulter (Coulter Corporation) with a 488 nm laser; 12,000 cells were counted for each histogram, and cell cycle distributions were analyzed with the Multicycle program.
10^6 HUVEC were treated with 15 μM of VISY antennapedia (penetratin) chimera or 15 μM of antennapedia peptide (pentratin) alone for 2-4 hours and chromatin fragmentation was analyzed by electrophoresis in an agarose gel.

[8] = target: T1, β5 integrin (Homo sapiens, UniProt P18084); assay: Annexin V binding to GST-β5 integrin cytoplasmic domain (ELISA, competition)
T1 construct: Plates were coated with GST fusion proteins of the cytoplasmic domains of various integrins
T1 sequence (P18084 743-799 limits assumed): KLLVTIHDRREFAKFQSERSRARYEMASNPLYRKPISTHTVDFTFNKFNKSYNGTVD
Procedure: FIG. 29A. Competitive binding of Annexin V to β5 integrin with VISY peptide. Binding assays were performed by ELISA.
Competitive binding assays were performed to examine the binding of Annexin V to β5 integrin and the effect of the VISY peptide. Plates were coated with GST fusion proteins of the cytoplasmic domains of various integrins and Annexin V was added to the plates. Binding of Annexin V was determined using anti-Annexin V antibodies. […] Calcium was used because Annexin V activity has been reported to be modulated by calcium. Binding of Annexin V to GST-β5 was blocked by addition of the VISY peptide (FIG. 29A).
A reciprocal study was performed, using Annexin V to coat plates and adding GST fusion proteins of integrin cytoplasmic domains. Binding was assessed using anti-GST fusion protein antibodies. […] In some studies, calcium ion appeared to interfere with the binding interaction between GST-β5 and Annexin V, with decreased binding observed in the presence of calcium (not shown).

[9] = system: mouse spleen cells; assay: Testing Fab clones in vitro using BRASIL; format: cell-based; conditions: for binding to mouse spleen cells compared to Fd-tet control: BRASIL, FIG. 13; for binding to mouse spleen cells compared to NPC-3TT: FIG. 14
Procedure: FIG. 13. Spleen targeting in vitro using BRASIL. Binding of Fab clones #2, #6, #10, #12 and control Fab clone NPC-3TT were directly compared to each other.
A singe cell suspension was prepared from two mouse spleens. The suspension was divided into five tubes and incubated on ice with 3×10^9 TU of Fab clones #2, #6, #10, #12 and 2×10^9 TU tet-phage. Phage bound to mouse spleen cells were recovered by BRASIL. 200 μl of log phase ER2537 E.coli was infected with the pellet and serial dilutions were plated on LB/carbenicillin and LB/tetracycline plates for assessment of phage binding. Fd-tet was used as an internal control to normalize all the phage homing experiments.

[10] = system: mouse spleen; assay: Testing Fab clones in vivo with BRASIL; conditions: 5 minutes circulation
[11] = FITC conjugates-I, 1 mouse iv (predominantly) or ip ~every other day, day 1-day 18, 9 times, Total 450 mM (~450 μg)
[12] = FITC conjugates-II, 1 mouse sc (predominantly) or iv ~every other day, day 4-day 17, 10 times, Total 1M (~1 mg)

Which results are given for “CARAC-FITC: FITC-conjugated control peptide CARAC (SEQ ID NO:12)”?
Peptide Effect on Embryo [1, 11]: No effect; Pregnancy Outcome [1, 11]: Delivery: 18 d, 5 normal pups; Peptide Effect on Embryo [1, 12]: Slight toxicity?; Pregnancy Outcome [1, 12]: Delivery: 20 d, 5 pups, 1-dead; localization in placenta [2]: not detectable in the placenta; localization in white fat of wild-type mice ([3]; C57BL/6 (leptin+/+) mice, co-injected lectin-rhodamine): not detectable in white fat vasculature; localization in white fat of ob/ob mice ([3]; leptin-deficient mice): undetectable in adipose tissue

For CPKVCPRECESNC, which “anti-M13 immunostaining on tissue sections” value ([4]; not shown) is on record?
Its value is “Strong phage staining was apparent in tumor vasculature but not in normal vasculature”.

What about the “phage enrichment in tumor xenografts compared to brain tissue” value ([4]; nude mice, 10^9 TU iv, 5 min) of the same molecule?
The value was 4 fold.

Which “effect on materno-fetal transfer / vys uptake of TPKTSVT-phage on co-injection” value [5] does the source give for TPKTSVT [placenta targeting peptide] here?
Its value is “blocked”.

What about the “toxicity to the mother” value ([6]; data not shown) of the same molecule?
The value was “no signs of peptide toxicity to the mother were observed”.

What about the “histopathological examination of the placentas” value ([6]; seven days of peptide administration) of the same molecule?
Its value is “massive dilation of blood vessels and intraplacental bleeding, as well as widespread hemorrhagic necrosis”.

How did the “induction of apoptosis (chromatin fragmentation)” value [7] turn out when VVISYSMPD was run?
The value was “Neither VISY nor penetratin alone induced apoptosis”.

What about the “inhibition of Annexin V binding to GST-β5” value ([8]; in the absence of calcium) of the same molecule?
The value was 45%.

And the “inhibition of Annexin V binding to GST-β5” value ([8]; in the presence of calcium)?
Its value is 67%.

B1: Fab clone #2: chicken anti-mouse spleen Fab phage clone selected by BRASIL (protein)
chain: CQPAMAAVTLDESGGGLQTPGGALSLVCKASGFTFNSYPMGWVRQAPGKGLEWVAVISSSGTTWYAPAVKGRATISRDNGQSTVRLQLSNLRAED
Which results are given for B1?
binding to mouse spleen cells compared to Fd-tet control [9]: at least a two-fold increased binding; binding to mouse spleen cells compared to NPC-3TT [9]: highest levels of binding to mouse spleen cells; binding / localization to spleen compared to Fd-tet phage [10]: many-fold increased binding to spleen

B2: Fab clone #6: chicken anti-mouse spleen Fab phage clone selected by BRASIL (protein)
chain: CQPAMAAVTLDESGGGLQTPGGTLSLVCKASGISIGYGMNWVRQAPGKGLEYVASISGDGNFAHYGAPVKGRATISRDDGQNTVTLQLNNLR
What does the source list for B2?
binding to mouse spleen cells compared to Fd-tet control [9]: lowest degree of binding; binding to mouse spleen cells compared to NPC-3TT [9]: only slightly higher than the binding of phage NPC-3TT; binding / localization to spleen compared to Fd-tet phage [10]: many-fold increased binding to spleen

B3: Fab clone #12: chicken anti-mouse spleen Fab phage clone selected by BRASIL (protein)
chain: ANQPWPPLTLDESGGGLQTPGGALSLVCKASGFTMSSYDMFWVRQAPGKGLEFVAGISSSGSSTEYGAAVKGRATISRDNGQSTVRLQLNNLRAED
Which results are given for B3?
binding to mouse spleen cells compared to Fd-tet control [9]: selective binding to mouse spleen cells; binding to mouse spleen cells compared to NPC-3TT [9]: only slightly higher than the binding of phage NPC-3TT; binding / localization to spleen compared to Fd-tet phage [10]: did not exhibit significantly elevated binding to mouse spleen
